Experimental data taken from patent US11407811B2, “Fusion protein, preparation method therefor and use thereof” (JIANGSU RONGTAI BIOTECH CO., LTD., priority 2017, dated 2022).
Marks after values point to notes of the source that are not given here.

What was measured:
[1] = system: human retinal vascular endothelial cell (HRCEC); assay: MTT assay, proliferation of human retinal vascular endothelial cell (HRCEC); format: cell-based; conditions: 48 hours
Experimental: The activity of the integrin blocker polypeptide to inhibit proliferation of human retinal vascular endothelial cells was examined by MTT assay. HRCEC cells were cultured in a 5% CO2 incubator at 37° C. to a density of 90% or more, and then collected by trypsinization. The cells were resuspended in the culture liquid and counted under a microscope. The cell concentration was adjusted to 3.0×10^4 cells/mL. The cell suspension was inoculated into a 96-well plate at 100 μL per well and cultured in a 5% CO2 incubator at 37° C. overnight. […] After the cells were fully adhered, each dilution was added to a 96-well plate at 100 μL per well, respectively. […] 20 μL of 5 mg/mL MTT was added to each well of a 96-well plate, and incubation was continued for 4 hours. The medium was aspirated and 100 μL of DMSO was added per well for dissolution. The absorbance was measured at 570 nm with a microplate reader with a reference wavelength of 630 nm, and the proliferation inhibition (PI) was calculated. The formula was as follows: […]
(§1) where Ntest is the OD value of the test group and Ncontrol is the OD value of the blank control group.
The test was repeated 5 times independently. The results obtained from the test were calculated as mean±SD, and statistical t-test was performed. P<0.05 was considered as significant difference, and P<0.01 was considered as extremely significant difference.

[2] = system: human glioma U87; assay: MTT assay, proliferation of human glioma U87; format: cell-based
Experimental: The MTT assay was used to detect the inhibitory effect of the integrin blocker fusion protein obtained in Example 1 on the proliferation of various tumor cells, including melanoma cell B16F10, gastric cancer cell MGC-803, lung cancer cell A549, liver cancer cell Hep-G2, breast cancer cell MDA-MB-231, colon cancer cell HCT-116, human glioma U87, and cervical cancer cell Hela.
The tumor cells were cultured in a 5% CO2 incubator at 37° C. to a density of 90% or more, and collected by trypsinization. The cells were resuspended in the culture liquid and counted under a microscope. The cell concentration was adjusted to 3.0×10^4 cells/mL. The cell suspension was inoculated into a 96-well plate at 100 μL per well and cultured overnight in a 5% CO2 incubator at 37° C. […] After the cells were fully adhered, each dilution was added to a 96-well plate at 100 μL per well, respectively. […] 20 μL of 5 mg/mL MTT was added to each well of a 96-well plate, and incubation was continued for 4 hours. The medium was aspirated and 100 μL of DMSO per well were added to dissolve. The absorbance was measured at 570 nm with a microplate reader with a reference wavelength of 630 nm, and the proliferation inhibition (PI) was calculated. The formula is as follows: […]
as §1
The test was repeated 5 times independently. The results obtained from the test were calculated as mean±SD, and statistical t-test was performed. P<0.05 was considered as a significant difference, and P<0.01 was considered as an extremely significant difference.

[3] = system: retinal blood vessels in OIR mice; assay: Retinal blood vessels in OIR mice; format: in vivo; conditions: dose 64 μg, injected into the vitreous body on day 13, evaluated on day 17
Source text: Establishment of the OIR model: young mice and their mothers were exposed to 75% hyperoxic environment from day 7 to day 12 after birth of C57/B16 mice so that capillaries in the central retina rapidly disappeared. On day 12, the mice were returned to indoor air and the retinal blood vessels exposed to hyperoxia rapidly disappeared, which caused extensive abnormal neovascularization, and the central part of the retina remained largely avascular for a long time. After the blood vessels disappeared completely, the fusion protein (administration group, the doses of fusion protein I, protein II, protein III, protein IV, and protein V were all 64 μg) or physiological saline (negative group) was injected into the vitreous body on day 13. Retinal vessels were evaluated on day 17 (labeled as unclosed vessels, […] of Texas Red-labeled tomato lectin was injected into the left ventricle and cycled for 5 minutes).

[4] = system: peritoneal capillary permeability in mice; assay: Peritoneal capillary permeability in mice (HAc, Evans blue); format: in vivo; conditions: for Exudation rate (OD590) / PI (%): mice
Experimental: The drug was administered once by injection (EDSM needed to be administered twice a day), and the blank model group was given an equal volume of physiological saline and fed normally. On the 5th day, a 5 g/L Evans blue physiological saline solution was injected into the tail vein at […], followed by intraperitoneal injection ([…]) of a HAc solution (6 mL/L) to induce inflammation. After 20 min, the mice were sacrificed by cervical dislocation. 5 mL of physiological saline was intraperitoneally injected, the abdomen was gently rubbed for 2 min, the abdominal cavity was cut, a peritoneal washing solution was collected and centrifuged at 4000 rpm for 10 min, 1 mL of supernatant was taken, and 3 mL of physiological saline was added to obtain 4 mL of dilution. The absorbance OD value of the dilution was measured by an ultraviolet spectrophotometer at a wavelength of 590 nm, and the amount of pigment exudation was expressed by the OD590 nm value, and the peritoneal capillary permeability in mice was examined.

B1: Protein II: IgG2-Fc linked to antiangiogenesis polypeptide EDSM-Y via a flexible linker; SEQ ID NO: 17 (protein)
chain: ERKCCVECPPCPAPPVAGPSVFLFPPKPKDTLMISRTPEVTCVVVDVSHEDPEVQFNWYVDGVEVHNAKTKPREEQFNSTFRVVSVLTVVHQDWLNGKEYKCKVSNKGLPAPIEKTISKTKGQPREPQVYTLPPSREEMTKNQVSLTCLVKGFYPSDISVEWESNGQPENNYKTTPPMLDSDGSFFLYSKLTVDKSRWQQGNVFSCSVMHEALHNHYTQKSLSLSPGKGGGGSGGGGSGGGGSFQPVLHLVALNSPLSGGMRGIRGADFQCFQQARAVGLAGTFRAGGGGRGD
- A570 nm/A630 nm ([1]; 1 μg/mL): 1.1122 ± 0.0385
- PI ([1]; 1 μg/mL): 17.44%
- A570 nm/A630 nm ([1]; 2 μg/mL): 1.0002 ± 0.0405
- PI ([1]; 2 μg/mL): 25.75%
- A570 nm/A630 nm ([1]; 4 μg/mL): 0.9287 ± 0.0288
- PI ([1]; 4 μg/mL): 31.06%
- A570 nm/A630 nm ([1]; 8 μg/mL): 0.8999 ± 0.0320
- PI ([1]; 8 μg/mL): 33.20%
- A570 nm/A630 nm ([1]; 16 μg/mL): 0.8225 ± 0.0291
- PI ([1]; 16 μg/mL): 38.94%
- A570 nm/A630 nm ([1]; 32 μg/mL): 0.7348 ± 0.0277
- PI ([1]; 32 μg/mL): 45.45%
- A570 nm/A630 nm ([1]; 64 μg/mL): 0.5748 ± 0.0314
- PI ([1]; 64 μg/mL): 57.33%
- A570 nm/A630 nm ([1]; 128 μg/mL): 0.3628 ± 0.0282
- PI ([1]; 128 μg/mL): 73.07%
- A570 nm/A630 nm ([1]; 256 μg/mL): 0.1495 ± 0.0314
- PI ([1]; 256 μg/mL): 88.90%
- A570 nm/A630 nm ([2]; dose 1 μg/mL): 0.6788 ± 0.0374
- PI (%) ([2]; dose 1 μg/mL): 3.01%
- A570 nm/A630 nm ([2]; dose 2 μg/mL): 0.6523 ± 0.0405
- PI (%) ([2]; dose 2 μg/mL): 6.80%
- A570 nm/A630 nm ([2]; dose 4 μg/mL): 0.6021 ± 0.0233
- PI (%) ([2]; dose 4 μg/mL): 13.97%
- A570 nm/A630 nm ([2]; dose 8 μg/mL): 0.5423 ± 0.0357
- PI (%) ([2]; dose 8 μg/mL): 22.52%
- A570 nm/A630 nm ([2]; dose 16 μg/mL): 0.5006 ± 0.0282
- PI (%) ([2]; dose 16 μg/mL): 28.48%
- A570 nm/A630 nm ([2]; dose 32 μg/mL): 0.4652 ± 0.0249
- PI (%) ([2]; dose 32 μg/mL): 33.53%
- A570 nm/A630 nm ([2]; dose 64 μg/mL): 0.4080 ± 0.0366
- PI (%) ([2]; dose 64 μg/mL): 41.71%
- PI (%) ([2]; dose 64 μg/mL, listed as protein II): about 50%
- A570 nm/A630 nm ([2]; dose 128 μg/mL): 0.3143 ± 0.0279
- PI (%) ([2]; dose 128 μg/mL): 55.09%
- A570 nm/A630 nm ([2]; dose 256 μg/mL): 0.2222 ± 0.0316
- PI (%) ([2]; dose 256 μg/mL): 68.25%
- Area (mm^2) occupied by neovascular clusters [3]: 0.146 ± 0.011* mm^2
- Reduce (%) [3]: 30.81%
- Reduce (%) ([3]; listed as protein II): 30.81%
- inhibition of the increase of peritoneal capillary permeability induced by glacial acetic acid ([4]; in words): could significantly inhibit the increase of peritoneal capillary permeability
- Exudation rate (OD590) ([4]; dose 8 mg/kg): 0.51 ± 0.06
- PI (%) ([4]; dose 8 mg/kg): 26.09%
- Exudation rate (OD590) ([4]; dose 32 mg/kg): 0.34 ± 0.03
- PI (%) ([4]; dose 32 mg/kg): 50.72%
- Exudation rate (OD590) ([4]; dose 128 mg/kg): 0.32 ± 0.07
- PI (%) ([4]; dose 128 mg/kg): 53.62%
